The target of the assay is recombinant SARS-CoV-2 spike RBD, WH-1 (Sino Biological 40592-V08B) (SARS-CoV-2 (wild type, WH-1)) (UniProt P0DTC2). Kind of assay: SPR (Biacore T200), minibinder immobilised, monomeric RBD as analyte. For orientation: SPR reads the build-up and loss of mass on a sensor chip optically.

This is an account of results in EP4556028A1.

In general, Kd refers to the concentration at which binding is half-saturated.

Regarding “recombinant minibinder AHB2 with N- and C-terminal Ser/Gly extensions and C-terminal Cys (designed binder)”, the Kd is 50 pM.

In the case of “recombinant minibinder LCB1 with N- and C-terminal Ser/Gly extensions and C-terminal Cys (designed binder)”, the Kd came out at 5 pM and the fold higher affinity than AHB2 is 10 fold.
